Results taken from patent US20220251159A1.
No end group written: not given here. *: point of attachment. Myristoyl = CCCCCCCCCCCCCC(=O)*

How the values were obtained:
Full length p53 = assay: MST; FIG. 3B; conditions: chains peptide; modification not given
[1] = target: two different p53 missense mutations (A161T and R175H) expressed in U266 and OPM2 multiple myeloma cells; assay: cell-based or functional assay

Kd (Full length p53) [µM]	Binder	IC50, cell viability (CellTiter-Glo, 72 h) of multiple myeloma cell lines [1] [µM]
30	RRHSTPHPD [pCAP250]	–
–	Myristoyl-RRHSTPHPD [pCAP 250 (SEQ ID NO: 1)]	1.5 to 3
